The subject of this data set is MS2 coat protein. Briefly: apparent KD of MS2 coat protein; designed switch direction (-1 OFF switch, 1 ON switch): -1; higher = weaker reporter binding. The procedure, abridged: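 Designed RNA switches were transcribed on Illumina chips by stalled E. coli RNA polymerase and titrated with SNAP-549-labelled MS2 coat protein from 0.7 or 1.5 nM, doubling to 3 µM. Step length ran from 0.8–1.5 h at the lowest concentration to 10–20 min at the highest. The apparent KD is the median over clusters for each design, from curve-fitted normalised cluster fluorescence.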

[1] abbreviates: Eterna round: R95, input ligand: FMN 200 uM.
Where [2] appears, read: Eterna round: R95, input ligand: microRNA oligo, concentration not stated.
Setting [3] is: Eterna round: R95, input ligand: none.
The mark [4] stands for this setting: input ligand: microRNA oligo, concentration not stated.

We go through 22 sequences from the supplement of paper PMC9170038.

Turning to “ACUUAUUGAGGAUAUACAUUAAAUUACAUGAGGAUCACCCAUGUUCUUCAAUGUAUAUAUGUAGAAGGCAGAAGAA [JL-ex5-4.27 Malcolm mod] (Eterna round: R97, puzzle: Exclusion 5)”, the “apparent KD of MS2 coat protein” value turned out to be 14.9 nM (input ligand: FMN 200 uM) and 16.4 nM (input ligand: none).
Take “ACUUGCUAUUUGCUCGUCUUAUCCUUGUUUGUUUACUAUACAUGAGGAUCACCCAUGUUAUAUUUAAGGGUGUGAUA [JR_SV3TOV2_Sub075] (puzzle: Sensor v3, turn-off variant 2)”: the “apparent KD of MS2 coat protein” value by setting is: under setting [1], 141 nM; under setting [2], 322 nM; under setting [3], 166 nM.
For the sequence “ACUUGUGCCCUAGGAUAUCGCCCAGCCAAUGGAUGAGAAGGAGGCGGGUGAAACAUGAGGAUCACCCAUGUAAACGCACAGGCG [Esa] (Eterna round: R96, puzzle: Exclusion NG 1)”, the “apparent KD of MS2 coat protein” value came to 114 nM (input ligand: FMN 200 uM), 25.5 nM under setting [4] and 26.9 nM (input ligand: none).
Turning to “AGAAACAGAGGAUAUACUUGAGGAUCACCCAAGUGUCACGGAAACACUGUGCUCCUUUGUAGAAGGCUGGAAUA [Dibeon] (Eterna round: R97, puzzle: Exclusion 3)”, the “apparent KD of MS2 coat protein” value is 382 nM (input ligand: FMN 200 uM) and 63 nM (input ligand: none).
Take “AGAAACAGAGGAUAUCGCGGACAGCACAUGAGGAUCACCCAUGUGAUGCUCCGCGGGCCGCGAGAAGGCUGAAAUG [Rateatge] (Eterna round: R96, puzzle: Exclusion 5)”: under setting [4], the “apparent KD of MS2 coat protein” value was found to be 11.2 nM.
As for “AGAAACAGAGGAUAUCGCGGACAGCACAUGAGGAUCACCCAUGUGAUGCUCCGCGGGCCGCGAGAAGGCUGAAAUG [Rateatge] (puzzle: Exclusion 5)”, the “apparent KD of MS2 coat protein” value was determined as 29.3 nM under setting [1], 12.2 nM under setting [2] and 14.1 nM under setting [3].
“AGAAACUCAAGAGGAUAUCACAUGAGGAUCACCCAUGUAUAGCGCGCUAUGCUAGUCCUCGUAUAUGAGAAGGUUUGAAAUAAG [Mat - Exclusion NG 2 - Mod of JL - D80] (Eterna round: R96, puzzle: Exclusion NG 2)”: the “apparent KD of MS2 coat protein” value is, setting by setting: (input ligand: FMN 200 uM) 16.4 nM; under setting [4], 12.6 nM; (input ligand: none) 17.9 nM.
Turning to “AGAAAUGCCCAUGGCAACAAGCUUUUUGCUUGUCUUACCACAUGAGGAUCACCCAUGUGACAUGGGCUCCUGAUAAU [Ladidier] (puzzle: Sensor v3, turn-off variant 2)”, the “apparent KD of MS2 coat protein” value stood at 12.4 nM under setting [1], 10.6 nM under setting [2] and 12.2 nM under setting [3].
Taken in the same sequence, the figures for “AGAAAUGCCCAUGGCCACAAGCUUUUUGCUUAUCUUACUACAUGAGGAUCACCCAUGUAACAUGGGCUCCUGACAAU [Enrionera] (puzzle: Sensor v3, turn-off variant 2)” were 14.9 nM, 11.2 nM and 13.3 nM.
Taken in the same sequence, the figures for “AGAAAUGCCCAUGGCCGCAAGCUUUUUACUUGUCUUACCACAUGAGGAUCACCCAUGUGACAUGGAAACCUUAUGAU [Sensor v3, turn-off variant 2 (MOD of Oranla v.2)] (puzzle: Sensor v3, turn-off variant 2)” were 30.3 nM, 97 nM and 28.1 nM.
On the same counts, the results for “AGAAAUGCCCAUGGCCGCAAGCUUUUUACUUGUCUUACCACAUGAGGAUCACCCAUGUGACAUGGAUUCCUUAUGAU [Sensor v3, turn-off variant 2 (MOD of Oranla)] (puzzle: Sensor v3, turn-off variant 2)” are 169 nM, 750 nM and 248 nM.
As to “AGAAAUGCCCAUGGCCGCAAGCUUUUUACUUGUCUUACCACAUGAGGAUCACCCAUGUGACAUGGGCUCCUGAUAAU [Mabeonen] (puzzle: Sensor v3, turn-off variant 2)”, the “apparent KD of MS2 coat protein” value is, setting by setting: under setting [1], 15 nM; under setting [2], 27.5 nM; under setting [3], 13.4 nM.
On the same counts, the results for “AGAAAUGCCCAUGGCCGCAAGCUUUUUACUUGUCUUACCACAUGAGGAUCACCCAUGUGACAUGGGCUCCUUAUAAU [Oranla] (puzzle: Sensor v3, turn-off variant 2)” are 15.8 nM, 7.4 nM and 13 nM.
Regarding “AGAAGGAAAGUGAGGAUAUGCUCUACCUCGGUAGAGCAGAAGGCACAUGAGGAUCACCCAUGUGACUCCUCAUU [Omei Ex4B B26] (Eterna round: R97, puzzle: Brourd's mod of Exclusion 4)”, the “apparent KD of MS2 coat protein” value (input ligand: FMN 200 uM) came to 29.2 nM and the “apparent KD of MS2 coat protein” value (input ligand: none) was found to be 19.5 nM.
With “AGAAGUAAAUAAGGAUAUCCAUGGGAGAGUGAAGGAGAAGGUAUAAUGUAUUCCAAUGUACCCACUAGGAGUACAAGAUGUUGA [Default title] (Eterna round: R96, puzzle: Exclusion NG 1)”, the “apparent KD of MS2 coat protein” value by setting is: (input ligand: FMN 200 uM) 47.9 nM; under setting [4], 4.55 nM; (input ligand: none) 23.1 nM.
For the sequence “AGAAGUAGAAACCGAUCCUACAUGAGGAUCACCCAUGUAGCAAGACGUGCACGCGAAGCUCGUCAGACUACCAGACG [salish99_TOv1_r3_019] (puzzle: Sensor v3, turn-off variant 1)”, the “apparent KD of MS2 coat protein” value reads like this: under setting [1], 152 nM; under setting [2], 175 nM; under setting [3], 249 nM.
Take “AGACAAACUGCAGGAUAUUGGCUGACUGCAGGUCAAGAAGGGCAGGACAUGAGGAUCACCCAUGUUCAGUAAACAGGGAGUCCU [Eternabot solution 14] (Eterna round: R96, puzzle: Exclusion NG 1)”: the “apparent KD of MS2 coat protein” value is, setting by setting: (input ligand: FMN 200 uM) 309 nM; under setting [4], 43.7 nM; (input ligand: none) 46.6 nM.
For the sequence “AGACAACAUGAGGAUCACCCAUGUAAGGAUAUACAAGAUUUGAGAAACGGACUGCCUUGUAGAAGGUACAGGUG [Eternabot (L2) Solution 9] (Eterna round: R97, puzzle: Exclusion 1)”, the “apparent KD of MS2 coat protein” value came out at 51 nM (input ligand: FMN 200 uM) and 36.7 nM (input ligand: none).
On the same counts, the results for “AGACCACAUGAGGAUCACCCAUGUCAGGAUAUCGACUGAACAGCUUCGGCUGUUCAGUCGAGAAGGGACAAUUA [Brourdxlusion 8 - Jieux - Exclusion 1] (Eterna round: R97, puzzle: Exclusion 1)” are 60 nM and 52.7 nM.
For “AGAGAACAUGAGGAUCACCCAUGUAAGGAUAUGCGAAGAGUUCGGAGAGGUUGAGGAGGCAGAAGGUACAGGAG [JR_Exclu1_Sub042] (puzzle: Exclusion 1)”, the “apparent KD of MS2 coat protein” value by setting is: under setting [1], 30.5 nM; under setting [2], 31.4 nM; under setting [3], 33.1 nM.
For “AGAGACCGAGGAUAUACAUGAGGAUCACCCAUGUUGUUAGGUGAUGGAUUAAUGAUUGGUAGAAGGCGGAGAGA [Seems to work] (Eterna round: R97, puzzle: Exclusion 3)”, the “apparent KD of MS2 coat protein” value reads like this: (input ligand: FMN 200 uM) 340 nM; (input ligand: none) 227 nM.
In the case of “AGAGAGUCAGGAUAUCGAAGGUAGUGGAGAGGAGUGUGGUACGAGAAGGGACAUGAGGAUCACCCAUGUAGGAG [JR_Exclusion4)Sub008] (puzzle: Exclusion 4)”, the “apparent KD of MS2 coat protein” value is, setting by setting: under setting [1], 31 nM; under setting [2], 35.4 nM; under setting [3], 33.2 nM.
